Reference: patent US20220363752A1 (VERSEAU THERAPEUTICS, published 2022)
Primed or numbered codes have the meaning given here. Biotin′ = not defined here

T1: LRRC25(96-115) biotin peptide (human, not fully specified; N-terminal acetyl; C-terminal GGK-Biotin; native Cys changed to Ser)
T1 construct: also called Biotin LRRC25 (96-115) peptide
T1 peptide: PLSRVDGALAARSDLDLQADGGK

T2: LRRC25(81-100) biotin peptide (human, not fully specified; N-terminal acetyl; C-terminal GGK-Biotin)
T2 peptide: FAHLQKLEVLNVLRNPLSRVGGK

T3: LRRC25(66-85) biotin peptide (human, not fully specified; N-terminal acetyl; C-terminal GGK-Biotin)
T3 peptide: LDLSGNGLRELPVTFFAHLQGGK

T4: LRRC25(150-165) biotin peptide (human)
T4 peptide: Ac-SAFLEVSSAPGLASATGG-{Biotin′}

T5: LRRC25(51-69) biotin peptide (human, not fully specified; N-terminal acetyl; C-terminal GGK-Biotin)
T5 peptide: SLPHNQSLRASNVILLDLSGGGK

T6: LRRC25(126-145) biotin peptide (human, not fully specified; N-terminal acetyl; C-terminal GGK-Biotin; native Cys changed to Ser)
T6 peptide: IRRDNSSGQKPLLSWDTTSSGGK

T7: LRRC25(21-40) biotin peptide (human, not fully specified; N-terminal NH2; C-terminal GGK-Biotin; native Cys changed to Ser)
T7 peptide: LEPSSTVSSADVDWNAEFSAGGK

T8: LRRC25(36-55) biotin peptide (human, not fully specified; N-terminal NH2; C-terminal GGK-Biotin; native Cys changed to Ser)
T8 peptide: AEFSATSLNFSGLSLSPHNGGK

T9: LRRC25(141-159) biotin peptide (human, not fully specified; N-terminal acetyl; C-terminal GGK-Biotin; native Cys changed to Ser)
T9 peptide: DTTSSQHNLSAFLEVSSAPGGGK

T10: LRRC25(111-130) biotin peptide (human, not fully specified; N-terminal acetyl; C-terminal GGK-Biotin; native Cys changed to Ser)
T10 peptide: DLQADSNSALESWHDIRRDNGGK

B1: anti-LRRC25 chimeric antibody 2D09 (antibody, human IgG4, V domains shown)
VH: QVTLKESGPGTVQPSQTLSLTCSFSGFSLSTSGMGVSWIRQSSGKGLEWLAHIYWDDDKRYNPSLKSRLTISKDTSSNQVFLRITSVDTADTATYYCARRPRDFYGGGHWYFDVWGAGTTVTVSS
VL: DVVMTQTPKSMSMSVGERVTLNCKASENVGTYVSWYQQKPEQSPKLLIYGASNRYTGVPDRFTGSGSATDFTLTISSMQAEDLADYHCGQSYNFPLTFGAGTKLELKR
notes: also called mAb 2D09; MAb 2D09
B2: anti-LRRC25 chimeric antibody 3A08 (antibody, human IgG4)
heavy: DVKLVESGGGLVKPGGSLKLSCAVSGFTLSSYAMSWVRQTPEKRLEWVASISRGGSTYYPDSVKGRFTISRDNGRNILNLQMSSLRSEDTAIYYCARGGGSTMITSLFAYWGQGTLVTVSAASTKGPSVFPLAPCSRSTSESTAALGCLVKDYFPEPVTVSWNSGALTSGVHTFPAVLQSSGLYSLSSVVTVPSSSLGTKTYTCNVDHKPSNTKVDKRVESKYGPPCPPCPAPEFLGGPSVFLFPPKPKDTLMISRTPEVTCVVVDVSQEDPEVQFNWYVDGVEVHNAKTKPREEQFNSTYRWSVLTVLHQDWLNGKEYKCKVSNKGLPSSIEKTISKAKGQPREPQVYTLPPSQEEMTKNQVSLTCLVKGFYPSDIAVEWESNGQPENNYKTTPPVLDSDGSFFLYSRLTVDKSRWQEGNVFSCSVMHEALHNHYTQKSLSLSLGK
light: DIVMTQAAFSNPVTLGTSASISCRSSKSLLHSNGITYLYWYLQKPGQSPQLLIYQMSNLASGVPDRFSSSGSGTDFTLRISRVEAEDVGVYYCAQNLELPFTFGSGTKLEIKRTVAAPSVFIFPPSDEQLKSGTASVVCLLNNFYPREAKVQWKVDNALQSGNSQESVTEQDSKDSTYSLSSTLTLSKADYEKHKVYACEVTHQGLSSPVTKSFNRGEC
notes: also called mAb 3A08

Columns and labels:
[1] = target: T11, His-tagged human LRRC25 extracellular domain protein, human LRRC25-His (human, UniProt Q8N386 21-165); assay: ELISA, antibody titrated on plate-immobilized Human LRRC25(ECD)-His, A450nm against -log [IgG] (M), left panel
T11 construct: The entry holds the extracellular domain, a GSG linker and the His tag; also called LRRC25(ECD)-HIS
T11 sequence (Q8N386 other isoform, or with tags, fused parts or gaps): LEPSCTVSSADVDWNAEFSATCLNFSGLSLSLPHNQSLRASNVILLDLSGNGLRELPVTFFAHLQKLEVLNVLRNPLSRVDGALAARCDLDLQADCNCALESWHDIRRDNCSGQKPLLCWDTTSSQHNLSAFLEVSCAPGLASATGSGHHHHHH
Procedure: (§1) To establish the relative binding strengths of anti-LRRC25 antibodies against human LRRC25, and their cross-reactivity with cynomolgus monkey LRRC25, antibody binding curve analyses were performed and EC50 values against plate-immobilized recombinant human and cyno LRRC25 proteins were determined.
(§2) A typical ELISA was performed by coating overnight in PBS, pH 7.4, at 4° C. in high binding microtiter wells with 1 ug/mL/100 ul per well of human LRRC25-His or cyno LRRC25-His. An anti-human LRRC25 antibody (2A3, LS Bio, LS-C174039-100) and anti-HIS-HRP (Miltenyi Biotec; 130-092-783) served as coating controls for the human and cyno LRRC25 proteins, respectively. […] Anti-LRRC25 antibodies were added (100 ul per well) at 500 nM and serially diluted 3-fold in assay buffer (1% skimmed milk in PBS, pH 7.4). The plate was incubated with gentle agitation for 1 h at room temperature. The plate was washed 3× and HRP-conjugated secondary antibody in assay buffer added [100 ul per well; goat anti-human IgG (Jackson Immunoresearch, cat #715-035-150)], and the plate was incubated as before. Antibody bound to plate-immobilized LRRC25(ECD)-HIS was determined at A450 nm using HRP substrate (3,3′,5,5′-tetramethylbenzidine (TMB); eBioscience; 00-4201-56); 100 μl/well).

[2] = target: T12, His-tagged cynomolgus monkey LRRC25 extracellular domain protein, cyno LRRC25-His (cynomolgus monkey); assay: ELISA, plate-immobilized antigen
T12 construct: The entry holds the extracellular domain, a GSG linker and the His tag
T12 sequence (chain, as listed by the source limits assumed): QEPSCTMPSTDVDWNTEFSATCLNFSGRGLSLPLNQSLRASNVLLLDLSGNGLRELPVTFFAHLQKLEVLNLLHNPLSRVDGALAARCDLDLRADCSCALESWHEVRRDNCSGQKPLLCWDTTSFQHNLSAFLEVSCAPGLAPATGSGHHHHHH
How it was run: (§3)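 Wells coated overnight at 4 °C with 1 ug/mL antigen in PBS pH 7.4. Antibodies titrated from 500 nM in 3-fold steps in 1% skimmed milk/PBS, 1 h at room temperature, then HRP anti-human IgG; TMB read at A450 nm and EC50 taken from binding curves.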

[3] = target: T11, His-tagged human LRRC25 extracellular …; assay: ELISA, plate-immobilized antigen
How it was run: as §3

[4] = target: T1, LRRC25(96-115) biotin peptide; assay: ELISA, 20 nM antibody, biotinylated antigen on streptavidin plate
How it was run: (§4)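 Plate-bound streptavidin captured biotinylated 16- to 20-mer LRRC25 ECD overlapping peptides (2 ug/mL), with biotinylated human LRRC25-His as positive control. Chimeric anti-LRRC25 antibodies at 20 nM, 45 min at 37° C in duplicate; detection by HRP anti-human IgG and TMB at A450 nm.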

[5] = target: T2, LRRC25(81-100) biotin peptide; assay: as above
How it was run: as §4

[6] = target: T13, biotinylated human LRRC25-His protein (human, UniProt Q8N386 21-165, biotinylated (sites not given)); assay: as above
T13 construct: also called Biotin LRRC25-His; biotinylated LRRC25 protein
T13 sequence (Q8N386 other isoform, or with tags, fused parts or gaps): as the sequence (Q8N386 other isoform, or with tags, fused parts or gaps) above
How it was run: as §4

[7] = target: T12, His-tagged cynomolgus monkey LRRC25 …; assay: ELISA, antibody titrated on plate-immobilized Cyno LRRC25(ECD)-His, A450nm against -log [IgG] (M), right panel
Procedure: as §1, §2

[8] = target: T3, LRRC25(66-85) biotin peptide; assay: peptide ELISA
How it was run: as §4

[9] = target: T4, LRRC25(150-165) biotin peptide; assay: peptide ELISA
How it was run: as §4

[10] = target: T5, LRRC25(51-69) biotin peptide; assay: peptide ELISA
How it was run: as §4

[11] = target: T6, LRRC25(126-145) biotin peptide; assay: peptide ELISA
How it was run: as §4

[12] = target: T1, LRRC25(96-115) biotin peptide; assay: peptide ELISA
How it was run: as §4

[13] = target: T2, LRRC25(81-100) biotin peptide; assay: peptide ELISA
How it was run: as §4

[14] = target: T7, LRRC25(21-40) biotin peptide; assay: peptide ELISA
How it was run: as §4

[15] = target: T8, LRRC25(36-55) biotin peptide; assay: peptide ELISA
How it was run: as §4

[16] = target: T9, LRRC25(141-159) biotin peptide; assay: peptide ELISA
How it was run: as §4

[17] = target: T10, LRRC25(111-130) biotin peptide; assay: peptide ELISA
How it was run: as §4

| Binder | EC50 (read off the curve) [1] [nM] | EC50 [2] [nM] | EC50 [3] [nM] | absorbance (A450) [4] [A450] | absorbance (A450) [5] [A450] | fold lower assay signal than with the biotinylated LRRC25 protein [5] [fold] | absorbance (A450) [6] [A450] | EC50 (read off the curve) [7] [nM] | binding result [8] | binding result [9] | binding result [10] | binding result [11] | binding result [12] | binding result [13] | binding result [14] | binding result [15] | binding result [16] | binding result [17] | binding result [7] |
| --- | --- | --- | --- | --- | --- | --- | --- | --- | --- | --- | --- | --- | --- | --- | --- | --- | --- | --- | --- |
| B1 | ~1 | 0.68 | 1.2 | 0.095 | 0.676 | ~4 | 2.5 | ~0.7 | – | – | – | – | – | – | – | – | – | – | – |
| B2 | – | – | 51.1 | 0.088 | – | – | 0.305 | – | no binding (tested: 20 nM) | no binding (tested: 20 nM) | no binding (tested: 20 nM) | no binding (tested: 20 nM) | no binding (tested: 20 nM) | no binding (tested: 20 nM) | no binding (tested: 20 nM) | no binding (tested: 20 nM) | no binding (tested: 20 nM) | no binding (tested: 20 nM) | no binding (tested: about 5e-7 M (-log [IgG] about 6.3)) |
